This note sets out measurements from paper PMC6403256, “ABHD5 blunts the sensitivity of colorectal cancer to fluorouracil via promoting autophagic uracil yield” (Nature Communications, 2019).

Holding throughout (details): both partners purified
For assay [1], the target named is T1, PDIA5 on the HuProt human protein chip (human, UniProt Q14554 22-519).
T1 construct: PDIA5, human, as spotted on the HuProt human protein chip; source: spotted on the HuProt human protein chip
T1 sequence (looked up): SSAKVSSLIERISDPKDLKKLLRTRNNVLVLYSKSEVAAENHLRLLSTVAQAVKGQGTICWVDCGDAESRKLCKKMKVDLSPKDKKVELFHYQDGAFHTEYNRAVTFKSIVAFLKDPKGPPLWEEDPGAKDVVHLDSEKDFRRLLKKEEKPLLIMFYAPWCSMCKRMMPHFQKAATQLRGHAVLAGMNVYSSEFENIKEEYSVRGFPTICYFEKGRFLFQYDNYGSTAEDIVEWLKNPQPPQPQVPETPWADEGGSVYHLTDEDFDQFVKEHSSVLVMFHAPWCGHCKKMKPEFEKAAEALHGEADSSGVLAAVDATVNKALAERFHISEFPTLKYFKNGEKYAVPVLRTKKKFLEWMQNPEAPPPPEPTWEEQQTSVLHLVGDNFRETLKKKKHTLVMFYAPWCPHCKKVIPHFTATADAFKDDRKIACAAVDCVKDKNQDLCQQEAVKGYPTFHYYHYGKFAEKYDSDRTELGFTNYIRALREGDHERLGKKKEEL
The assay can be described thus: peptide or protein array; human ABHD5 recombinant protein used to probe the HuProt human protein chip.

Another assay addresses T2, His-PDIA5 (human, UniProt Q14554 22-519).
T2 construct: PDIA5, human, wild type; source: recombinant protein from Wuhan GeneCreate Biological Engineering Co., Ltd
T2 sequence (looked up): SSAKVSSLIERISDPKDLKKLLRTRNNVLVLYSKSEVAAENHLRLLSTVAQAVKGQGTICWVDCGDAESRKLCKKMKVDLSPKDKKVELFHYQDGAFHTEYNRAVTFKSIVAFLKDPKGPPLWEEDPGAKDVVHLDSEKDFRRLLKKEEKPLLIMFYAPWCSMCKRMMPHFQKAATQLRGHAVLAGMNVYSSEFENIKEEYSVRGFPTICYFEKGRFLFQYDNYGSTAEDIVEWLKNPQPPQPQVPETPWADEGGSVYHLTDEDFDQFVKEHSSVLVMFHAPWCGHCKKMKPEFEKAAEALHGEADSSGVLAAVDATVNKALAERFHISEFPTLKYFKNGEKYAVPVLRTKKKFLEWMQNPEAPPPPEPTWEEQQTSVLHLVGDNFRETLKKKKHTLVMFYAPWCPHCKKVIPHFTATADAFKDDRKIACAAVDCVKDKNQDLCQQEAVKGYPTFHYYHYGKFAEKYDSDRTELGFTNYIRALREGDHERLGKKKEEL
The assay can be described thus: pull-down; competitive binding: 50 ug GST-RNASET2 mixed with 0, 50, 100, 200 ug GST-ABHD5, incubated with 50 ug immobilized His-PDIA5 at 4 C for 4 h; detected by blot.

Assay [2] addresses T3, GST-tagged wild type PDIA5 (human, UniProt Q14554 22-519).
T3 construct: PDIA5, human, wild type; also called GST-PDIA5; wild type PDIA5 (W); source: expressed and purified; recombinant protein from Wuhan GeneCreate Biological Engineering Co., Ltd
T3 sequence (looked up): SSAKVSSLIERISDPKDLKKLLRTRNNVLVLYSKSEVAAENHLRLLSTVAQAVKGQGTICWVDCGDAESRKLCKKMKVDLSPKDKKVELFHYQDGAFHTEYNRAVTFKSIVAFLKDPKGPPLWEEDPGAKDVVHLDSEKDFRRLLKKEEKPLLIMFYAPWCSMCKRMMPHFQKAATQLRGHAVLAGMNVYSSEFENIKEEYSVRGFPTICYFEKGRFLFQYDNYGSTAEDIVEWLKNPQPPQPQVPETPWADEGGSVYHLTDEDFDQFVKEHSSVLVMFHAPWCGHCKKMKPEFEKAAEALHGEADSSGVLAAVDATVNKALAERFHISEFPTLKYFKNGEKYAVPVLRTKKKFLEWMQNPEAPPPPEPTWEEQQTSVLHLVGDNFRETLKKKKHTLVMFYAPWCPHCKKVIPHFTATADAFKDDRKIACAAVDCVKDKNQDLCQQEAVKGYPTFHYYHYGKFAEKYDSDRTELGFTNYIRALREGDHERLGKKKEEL
The assay can be described thus: pull-down; Ni-NTA bead pull-down: 50 ug GST, GST-PDIA5 or mutant GST-PDIA5 with 50 ug immobilized His-ABHD5 or His-RNASET2; 20 mM Tris pH 8.0, 100 mM NaCl, 0.2% Triton X-100; 4 C, 4 h; eluates blotted with anti-GST.

B1: human ABHD5 recombinant protein (probe on the HuProt chip) (natural protein, UniProt Q8WTS1 1-349, looked up)
chain: MAAEEEEVDSADTGERSGWLTGWLPTWCPTSISHLKEAEEKMLKCVPCTYKKEPVRISNGNKIWTLKFSHNISNKTPLVLLHGFGGGLGLWALNFGDLCTNRPVYAFDLLGFGRSSRPRFDSDAEEVENQFVESIEEWRCALGLDKMILLGHNLGGFLAAAYSLKYPSRVNHLILVEPWGFPERPDLADQDRPIPVWIRALGAALTPFNPLAGLRIAGPFGLSLVQRLRPDFKRKYSSMFEDDTVTEYIYHCNVQTPSGETAFKNMTIPYGWAKRPMLQRIGKMHPDIPVSVIFGARSCIDGNSGTSIQSLRPHSYVKTIAILGAGHYVYADQPEEFNQKVKEICDTVD
notes: ABHD5, human, recombinant protein used to probe the HuProt human protein chip; The methods list two recombinant ABHD5 proteins: His-ABHD5 (Wuhan GeneCreate) and ABHD5 (Human) recombinant protein H00051099-P01 (Novus)
B1: in assay [1], the binding result is on record as “binds”.

B2: GST-ABHD5 (natural protein, human, UniProt Q8WTS1 1-349, looked up)
chain: MAAEEEEVDSADTGERSGWLTGWLPTWCPTSISHLKEAEEKMLKCVPCTYKKEPVRISNGNKIWTLKFSHNISNKTPLVLLHGFGGGLGLWALNFGDLCTNRPVYAFDLLGFGRSSRPRFDSDAEEVENQFVESIEEWRCALGLDKMILLGHNLGGFLAAAYSLKYPSRVNHLILVEPWGFPERPDLADQDRPIPVWIRALGAALTPFNPLAGLRIAGPFGLSLVQRLRPDFKRKYSSMFEDDTVTEYIYHCNVQTPSGETAFKNMTIPYGWAKRPMLQRIGKMHPDIPVSVIFGARSCIDGNSGTSIQSLRPHSYVKTIAILGAGHYVYADQPEEFNQKVKEICDTVD
notes: ABHD5, human
Regarding B2, in the assay with His-PDIA5, the binding result was “binds”.

B3: His-tagged full-length ABHD5 (natural protein, human, UniProt Q8WTS1 1-349, looked up)
chain: MAAEEEEVDSADTGERSGWLTGWLPTWCPTSISHLKEAEEKMLKCVPCTYKKEPVRISNGNKIWTLKFSHNISNKTPLVLLHGFGGGLGLWALNFGDLCTNRPVYAFDLLGFGRSSRPRFDSDAEEVENQFVESIEEWRCALGLDKMILLGHNLGGFLAAAYSLKYPSRVNHLILVEPWGFPERPDLADQDRPIPVWIRALGAALTPFNPLAGLRIAGPFGLSLVQRLRPDFKRKYSSMFEDDTVTEYIYHCNVQTPSGETAFKNMTIPYGWAKRPMLQRIGKMHPDIPVSVIFGARSCIDGNSGTSIQSLRPHSYVKTIAILGAGHYVYADQPEEFNQKVKEICDTVD
notes: ABHD5, human, wild type, full length; also called His-ABHD5; source: recombinant protein from Wuhan GeneCreate Biological Engineering Co., Ltd
For the molecule B3, the binding result in assay [2] is “binds”.
